The target of assay [1] is T1, Recombinant human PD-1-Fc (human, UniProt Q15116 25-167, limits assumed).
T1 construct: also called recombinant human PD-1-Fc protein; not shown: Fc part
Put plainly: competition ELISA, coated human PD-1-Fc, blocked ligand biotin-labeled PD-L2 (final 160 nM), streptavidin-HRP, OD450nm [panel PD-1/PD-L2 Blocking Activity]. As for the experimental part:
(§1) Recombinant human PD-1-Fc was coated on a 96-well high-absorbing ELISA plate with a carbonate buffer solution with pH 9.6, the coating concentration was 1 μg/mL, the coating amount was 100 μL per well, and the coating was carried at 4° C. out overnight. The plate was washed five times with PBST and blocked with 300 μL/well of PBST containing 1% BSA and incubated at 25° C. for 1 hour. The plate was washed five times with PBST. The positive control and the anti-human PD-1 antibody sample were added, 50 μL per well. […] The plate was washed five times with PBST. Then, Streptavidin-HRP (BD Pharmingen, Catalog Number 554066) 1:1000 diluted in PBST containing 1% BSA was added, 100 μL per well, incubated at 25° C. for 1 hour. The plate was washed five times with PBST. 100 μL/well of colorimetric substrate TMB was added and incubated at room temperature for 10 minutes. Color development was terminated by adding 100 μL/well of 1 M H₂SO₄. The absorbance at 450 nm was read on a microplate reader.

In assay [2] the target is T2, Recombinant human CD80 (Sino Biological Inc.) (human, UniProt P33681 35-242).
T2 sequence (looked up): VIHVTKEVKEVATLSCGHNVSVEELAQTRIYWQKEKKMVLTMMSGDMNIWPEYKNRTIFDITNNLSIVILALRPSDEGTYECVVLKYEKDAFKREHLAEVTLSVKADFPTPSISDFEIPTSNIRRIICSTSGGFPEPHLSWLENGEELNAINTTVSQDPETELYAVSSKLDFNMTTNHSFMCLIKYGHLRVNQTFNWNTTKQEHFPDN
Put plainly: binding specificity ELISA, coated recombinant human CD80, anti-human IgG-HRP. Here is the method:
(§2) The plate was washed five times with PBST and blocked with 300 μL/well of PBST containing 1% BSA and incubated at 25° C. for 1 hour. The plate was washed five times with PBST. […] The plate was washed five times with PBST. Then, horseradish peroxidase-labeled anti-human IgG antibody (Chemicon, Catalog Number AP309P) 1:2000 diluted in PBST containing 1% BSA was added, 100 μL was added to each well, incubated at 25° C. for 1 hour. The plate was washed five times with PBST. 100 μL/well of colorimetric substrate TMB was added and incubated at room temperature for 10 minutes. Color development was terminated by adding 100 μL/well of 1 M H₂SO₄. The absorbance at 450 nm was read on a microplate reader.

The target of assay [3] is Recombinant human CD28 (Sino Biological Inc.) (human, UniProt P10747 19-152). The assay can be described thus: binding specificity ELISA, coated recombinant human CD28, anti-human IgG-HRP. As for the experimental part: as §2
Sequence of Recombinant human CD28 (Sino Biological Inc.) (P10747 19-152 limits assumed): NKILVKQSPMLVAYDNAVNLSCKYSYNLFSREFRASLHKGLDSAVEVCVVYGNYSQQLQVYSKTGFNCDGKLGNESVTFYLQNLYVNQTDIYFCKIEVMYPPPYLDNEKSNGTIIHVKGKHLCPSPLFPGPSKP
The target of assay [4] is T3, Recombinant human PD-1 (Sino Biological Inc., Catalog Number 10377-H08H) (human, UniProt Q15116 25-167).
T3 construct: Bought protein; also called antigen PD-1
T3 sequence (Q15116 25-167 limits assumed): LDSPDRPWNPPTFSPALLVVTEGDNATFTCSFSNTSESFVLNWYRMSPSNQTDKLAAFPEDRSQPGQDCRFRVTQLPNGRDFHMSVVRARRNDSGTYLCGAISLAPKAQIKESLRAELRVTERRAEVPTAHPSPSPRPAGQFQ
The assay can be described thus: ELISA, human PD-1 coated. As for the experimental part: Recombinant human PD-1 (purchased from Sino Biological Inc.) was coated on a 96-well high-absorbing ELISA plate with a carbonate buffer solution with pH 9.6, the coating concentration was 1 μg/mL, the coating amount was 100 μL per well, and the coating was carried out at 4° C. overnight. The plate was washed five times with PBST and blocked with 300 μL/well of PBST containing 1% BSA, and then incubated at 25° C. for 1 hour. The plate was washed five times with PBST. […] The plate was washed five times with PBST. Then, horseradish peroxidase-labeled anti-human IgG antibody (Chemicon, Catalog Number AP309P) 1:2000 diluted in PBST containing 1% BSA was added, 100 μL per well, incubated at 25° C. for 1 hour. The plate was washed five times with PBST. 100 μL/well of colorimetric substrate TMB was added and incubated at room temperature for 10 minutes. Color development was terminated by adding 100 μL/well of 1 M H₂SO₄. The absorbance at 450 nm was read on a microplate reader.

Assay [5] deals with T1, Recombinant human PD-1-Fc. The assay can be described thus: competition ELISA, coated human PD-1-Fc, blocked ligand biotin-labeled PD-L1 (final 10 nM), streptavidin-HRP, OD450nm [panel PD-1/PD-L1 Blocking Activity]. As for the experimental part: as §1
Assay [6] addresses T4, Recombinant human PD-L2 (Sino Biological Inc.) (human, UniProt Q9BQ51 20-220).
T4 sequence (looked up): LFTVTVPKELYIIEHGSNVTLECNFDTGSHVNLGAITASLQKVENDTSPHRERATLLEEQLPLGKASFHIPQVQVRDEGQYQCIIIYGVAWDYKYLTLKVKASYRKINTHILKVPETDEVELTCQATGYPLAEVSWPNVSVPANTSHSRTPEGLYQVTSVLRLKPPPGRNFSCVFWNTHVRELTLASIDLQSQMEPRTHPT
Put plainly: binding specificity ELISA, coated recombinant human PD-L2, anti-human IgG-HRP. Here is the method: as §2

For assay [7], the target named is Recombinant human PD-L1 (Sino Biological Inc.) (human, UniProt Q9NZQ7 19-239). Put plainly: binding specificity ELISA, coated recombinant human PD-L1, anti-human IgG-HRP. Here is the method: as §2
Sequence of Recombinant human PD-L1 (Sino Biological Inc.) (Q9NZQ7 19-239 limits assumed): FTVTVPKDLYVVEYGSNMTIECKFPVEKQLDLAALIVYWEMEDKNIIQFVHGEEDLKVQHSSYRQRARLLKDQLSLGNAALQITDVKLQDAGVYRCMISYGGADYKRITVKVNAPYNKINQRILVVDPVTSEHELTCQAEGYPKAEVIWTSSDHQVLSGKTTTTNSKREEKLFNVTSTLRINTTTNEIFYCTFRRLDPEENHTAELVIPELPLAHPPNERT
Assay [8] concerns the target T1, Recombinant human PD-1-Fc. Put plainly: competition ELISA, PD-1-Fc coated, competitor biotin-labeled PD-L1. Here is the method: as §1
The target in assay [9] is T5, Recombinant human CD86 (Sino Biological Inc.) (human, UniProt P42081 24-247, limits assumed).
T5 sequence (looked up): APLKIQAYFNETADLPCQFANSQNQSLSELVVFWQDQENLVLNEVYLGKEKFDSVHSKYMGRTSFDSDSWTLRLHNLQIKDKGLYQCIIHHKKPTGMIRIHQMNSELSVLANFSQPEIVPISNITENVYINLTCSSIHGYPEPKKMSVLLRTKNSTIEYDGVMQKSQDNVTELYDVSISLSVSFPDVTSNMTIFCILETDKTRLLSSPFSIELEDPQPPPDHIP
The assay can be described thus: binding specificity ELISA, coated recombinant human CD86, anti-human IgG-HRP. As for the experimental part: as §2

For assay [10], the target named is T6, Recombinant human ICOS (Sino Biological Inc.) (human, UniProt Q9Y6W8 21-141).
T6 sequence (looked up): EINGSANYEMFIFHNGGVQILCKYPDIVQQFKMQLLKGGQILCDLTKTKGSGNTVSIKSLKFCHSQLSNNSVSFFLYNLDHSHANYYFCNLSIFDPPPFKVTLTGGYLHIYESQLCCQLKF
The assay can be described thus: binding specificity ELISA, coated recombinant human ICOS, anti-human IgG-HRP. Here is the method: as §2

T1 sequence (Q15116 25-167 limits assumed): as the sequence (Q15116 25-167 limits assumed) above

B1: anti-human PD-1 chimeric monoclonal antibody (antibody, human IgG4 S228P, kappa, V domains shown)
VH: EVQLQESGGGLVKPGGSLKLSCAASGFTFSSYGMSWVRQTPEKRLEWVASISGGGRYTYYPDSMKGRFTISRDNAKNNLHLQMSSLRSEDTALYYCVYEYFYTMDYWGQGTSVTVSS
VL: DIVLTQSPATLSVTPGDSVSLSCRANQSISNNLHWYQQRSHESPRLLIRFASQSISGIPSRFSGSGSGTDFTLSINSVETEDFGMYFCQQSDNWPLTFGAGTKLEIKR
notes: expressed in 293F cells; also called Anti-human PD-1 Chimeric Antibody; chimeric anti-human PD-1 monoclonal antibody
With B1, the IC50 was 895 pM in assay [1], 972 pM in assay [5] and 1450 pM in assay [8]. For the same molecule, the binding result in assay [2], in assay [3], in assay [6], in [7], in assay [9] and in assay [10] was “no binding” in each case. For the same molecule, in assay [4], the EC50 turned out to be 31 pM.

(Values after patent publication US20190367615A1 (BEIJING HANMI PHARM, published 2019).)
